The record followed here is ChEMBL document CHEMBL1145332, “Design of inhibitors of orotidine monophosphate decarboxylase using bioisosteric replacement and determination of inhibition kinetics” (J Med Chem, 2006).

As a reminder, the Km is the substrate concentration at which the rate is half of its maximum.

Substrate in series [1]: O=C(O)c1cc(=O)[nH]c(=O)n1[C@@H]1O[C@H](COP(=O)(O)O)[C@@H](O)[C@H]1O
As to the kind of experiment: Affinity for Saccharomyces cerevisiae ODCase at 25 degreeC by UV-based assay.

Substrate in series [2]: O=C(O)c1cc(=O)[nH]c(=O)n1[C@@H]1O[C@H](COP(=O)(O)O)[C@@H](O)[C@H]1O
As to the kind of experiment: Affinity for Methanobacterium thermoautotrophicum ODCase at 55 degreeC by ITC method. Background: Isothermal titration calorimetry measures the heat released or taken up as one component is titrated into another.

Substrate in series [3]: O=C(O)c1cc(=O)[nH]c(=O)n1[C@@H]1O[C@H](COP(=O)(O)O)[C@@H](O)[C@H]1O
As to the kind of experiment: Affinity for Methanobacterium thermoautotrophicum ODCase at 25 degreeC by ITC method.

Substrate in series [4]: O=C(O)c1cc(=O)[nH]c(=O)n1[C@@H]1O[C@H](COP(=O)(O)O)[C@@H](O)[C@H]1O
In words: Affinity for Plasmodium falciparum ODCase at 25 degreeC by UV-based assay.

B1: Orotidine 5'-phosphate decarboxylase (Saccharomyces cerevisiae S288c), P03962 (protein)
chain: MSKATYKERAATHPSPVAAKLFNIMHEKQTNLCASLDVRTTKELLELVEALGPKICLLKTHVDILTDFSMEGTVKPLKALSAKYNFLLFEDRKFADIGNTVKLQYSAGVYRIAEWADITNAHGVVGPGIVSGLKQAAEEVTKEPRGLLMLAELSCKGSLATGEYTKGTVDIAKSDKDFVIGFIAQRDMGGRDEGYDWLIMTPGVGLDDKGDALGQQYRTVDDVVSTGSDIIIVGRGLFAKGRDAKVEGERYRKAGWEAYLRRCGQQN
For the protein B1, the Km in series [1] worked out at 0.7 µM.

B2: Orotidine 5'-phosphate decarboxylase (Methanobacterium thermoautotrophicum), O26232 (protein)
chain: MRSRRVDVMDVMNRLILAMDLMNRDDALRVTGEVREYIDTVKIGYPLVLSEGMDIIAEFRKRFGCRIIADFKVADIPETNEKICRATFKAGADAIIVHGFRGADSVRACLNVAEEMGREVFLLTEMSHPGAEMFIQGAADEIARMGVDLGVKNYVGPSTRPERLSRLREIIGQDSFLISPGVGAQGGDPGETLRFADAIIVGRSIYLADNPAAAAAGIIESIKDLLNP
Take B2: the Km in series [2] stood at 5 µM; in series [3], 2 µM.

B3: Orotidine phosphate decarboxylase (Plasmodium falciparum), Q8T6J6 (protein)
chain: MGFKVKLEKRRNAINTCLCIGLDPDEKDIENFMKNEKENNYNNIKKNLKEKYINNVSIKKDILLKAPDNIIREEKSEEFFYFFNHFCFYIINETNKYALTFKMNFAFYIPYGSVGIDVLKNVFDYLYELNIPTILDMKINDIGNTVKNYRKFIFEYLKSDSCTVNIYMGTNMLKDICYDEEKNKYYSAFVLVKTTNPDSAIFQKNLSLDNKQAYVIMAQEALNMSSYLNLEQNNEFIGFVVGANSYDEMNYIRTYFPNCYILSPGIGAQNGDLHKTLTNGYHKSYEKILINIGRAITKNPYPQKAAQMYYDQINAILKQNMES
On to B3, for which the Km in series [4] turned out to be 13 µM.
